For test [1], the target named is human serum albumin (HSA) (human) (UniProt P02768). Briefly: competition SPA on biotinylated HSA, 125I acylated GLP-1 tracer.
Test [2] has as its target human serum albumin (HSA) (human), P02768. The description is as above. Conditions: remark: other sources report otherwise.

Non-standard residues stand in square brackets, D forms with d. No end group written: not given here. Aib = CC(C)(N)C(=O)O

B1: N-epsilon23-[2-(2-[2-(2-[2-(2-((R)-3-[1-(17-Carboxyheptadecanoylamino)piperidin-4-ylcarbonylamino]-3-(carboxypropionylamino)ethoxy)ethoxy]acetylamino)ethoxy]eth … (peptide)
peptide: H[Aib]EGTFTSDVSSYLEGKAAREFIAWLVRGRG
modifications: not fully specified (residue 17); printed as N-epsilon23-[2-(2-[2-(2-[2-(2-(R)-3-[1-(17-Carboxyheptadecanoylamino)piperidin-4-ylcarbonylamino]-3-(carboxypropionylamino)ethoxy)ethoxy]acetylamino)ethoxy]ethoxy)acetyl][Aib8,Arg26,Arg 34]GLP-1-(7-37)
In test [1], B1 showed a concentration for a half-maximal effect (EC50) of 300 to 800 nM.

B2: N-epsilon26-[(S)-4-Carboxy-4-({trans-4-[(19-carboxynonadecanoylamino)methyl]cyclohexanecarbonyl}amino)butyryl][Aib8,Arg34]GLP-1-(7-37) (peptide)
peptide: HAEGTFTSDVSSYLEGQAAKEFIAWLVRGRG
modifications: here or on the partner: Aib8; Lys26 N-epsilon carries the acyl side chain printed in the name; biotinylated
In turn, B2 gave an EC50 in test [2] of 300 to 800 nM.

For the origin of these results see US20140011732A1.
